Target: T1, CHN-1 (C. elegans)
T1 chain: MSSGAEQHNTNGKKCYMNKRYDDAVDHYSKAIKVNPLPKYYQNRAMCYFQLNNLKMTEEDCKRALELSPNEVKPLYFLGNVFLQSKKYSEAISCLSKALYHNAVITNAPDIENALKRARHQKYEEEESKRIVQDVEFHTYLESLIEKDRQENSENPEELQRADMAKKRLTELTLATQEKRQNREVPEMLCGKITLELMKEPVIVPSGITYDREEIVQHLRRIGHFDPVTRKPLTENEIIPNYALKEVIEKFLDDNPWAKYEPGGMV
Assay: ELISA

B1: UFD-2 (enzyme)
chain: MIEDEKAGLQPMDISDASVFFFQADVESKDFLTSLFDCEGKSDDRMLRYADAIIDVQNLNFDVSPQCLQSNIAEIITKFVLLSQDGSRRGLSRSFNFIDPDIIAGCREEDAIEFLLINFVRCHHELGKSGTSNCYKKTLESTRKAVFSVFVMIQRGYLESQLRSQHASLVFTKRLLEDTVSNVFLRTLVEYLASTDECDEDAITETFNPIFGILRSGIICQRFEDNKDEIVRQILRVMNLLLSIRLPSNGPRPLSNLLVNREDFLPTPSEKIQGREFGLMSFLGPFFSYGLESSARRPNHRVFVDCEEDARKYDGSVNTEQKLYFQRMDPIRTMLHQLMLPLASDQGSRNKTLRWIATIISTNDIRTRSHYDPSDVLCDHYMTNFLSVMYMFSEKIDLSKIIVDYPFLPSSLINISKETRLKMDESGAVAFASQFADRPDEYHFSTVCFFLTIAAQRLVIPPLMNQISEYSRHLKELKHKINALKEKLNTVSGFERAEVEKKLNYETEHWKLMSRHLLCVKTQAQDPALMASSMDFVDKQMKFILNLLCDNLDLLGDDSQLPTEVSQMFCALPEYFLEDALDFYIFAISNGMKLLMERNADWISRLTVLFTQYHYIKSPFLVSKLVRVLSSIQPPLWFNVVRLRMAQENLLMCMIKFYSDFEDNGDFYEKFNVRGNIQYMLEKMEEDMFYKGKFMDMARECGAEFIRFVNMVINDATWCIDESLSGLKSIHDVEKKMANKVEWDNTDQEIRNQDLGVYEEAKRKVKGWLGTAKSNLKLLLSITVNSPEPFRTPVLGERLAAMLNHNLSQLIGSKASELKVKDPRSYGWEPREFVSLLISIYLKLNMPAFVKYIAYDERTYSPEFFHNAIECMRKNSIVGFSQLESFEHLAEDVKKEYEAKAELEEEYDDVPEEFKDPIMDAIMVDPVKLPSGHVMDRAVIERHLLSTPNNPFNRAPLSHNELSPDSELKAKIQEWICQKRNSKK
Q: Which Kd does the source give for B1 here?
A: Its Kd is 37.8 nM.

B2: HSP-1::6xHis (natural protein)
chain: not shown
Q: For B2, which Kd is on record?
A: Its Kd is 12.2 nM.

From publication PMC9340540 (2022)
